Target: AdeB from Acinetobacter baumannii (RND transporter subunit of the AdeABC efflux pump) (Acinetobacter baumannii AYE)
Assay: native gel or EMSA + other: negative stain electron microscopy; AdeB reconstituted into Salipro Nanodiscs

Question: How did the stoichiometry N turn out when “AdeB from Acinetobacter baumannii (RND transporter subunit of the AdeABC efflux pump) (natural protein)” was run?
Answer: 3
